According to publication PMC8041770 (2021):

Target: recombinant human LIF, histidine-tagged (hLIF-His) (human, UniProt P15018 23-202)
Assay: FACS

Sequence of recombinant human LIF, histidine-tagged (hLIF-His) (P15018 23-202): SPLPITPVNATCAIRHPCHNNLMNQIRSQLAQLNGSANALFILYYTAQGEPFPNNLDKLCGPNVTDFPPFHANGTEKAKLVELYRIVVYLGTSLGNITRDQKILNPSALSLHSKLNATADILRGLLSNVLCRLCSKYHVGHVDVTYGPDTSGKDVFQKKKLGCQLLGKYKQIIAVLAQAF

B1: yeast-displayed eLIFR CBM I–Ig-like–CBM II domains (designed binder)
chain: QKKGAPHDLKCVTNNLQVWNCSWKAPSGTGRGTDYEVCIENRSRSCYQLEKTSIKIPALSHGDYEITINSLHDFGSSTSKFTLNEQNVSLIPDTPEILNLSADFSTSTLYLKWNDRGSVFPHRSNVIWEIKVLRKESMELVKLVTHNTTLNGKDTLHHWSWASDMPLECAIHFVEIRCYIDNLHFSGLEEWSDWSPVKNISWIPDSQTKVFPQDKVVPVGSDITFCCVSQEKVLSALIGRTNCPLIHLDGENVAIKVRNVSASASSGTNVVFITEDDIFGTVIFAGYPPDTPQQLNCETHDLKEIICSWNPGRVTALVGPRATSYTLVESFSGKYVRLKRAEAPTNESYQLLFQMLPNQEIYNFTLNAHNPLGRSQSTILVNITEKVYPHTPTSFKVKDINSTAVKLSWHLPGNFAKINFLCEIEIKKSNSVQEQRNVTIKGVENSSYLVALDKLNPYTLYTFRIRCSTETFWKWSKWSNKKQHLTTEAS
**Q.** How did the Kd turn out when B1 was run?
**A.** 0.014 nM
